This note sets out measurements from patent US20220195053A1 (SURROZEN OPERATING, published 2022).

Assay [1] concerns the target T1, Mucin 13, cell surface associated (MUC-13), on human intestine HT29 cells (human, UniProt Q9H3R2 19-512).
T1 construct: whole, on cells
T1 sequence (looked up): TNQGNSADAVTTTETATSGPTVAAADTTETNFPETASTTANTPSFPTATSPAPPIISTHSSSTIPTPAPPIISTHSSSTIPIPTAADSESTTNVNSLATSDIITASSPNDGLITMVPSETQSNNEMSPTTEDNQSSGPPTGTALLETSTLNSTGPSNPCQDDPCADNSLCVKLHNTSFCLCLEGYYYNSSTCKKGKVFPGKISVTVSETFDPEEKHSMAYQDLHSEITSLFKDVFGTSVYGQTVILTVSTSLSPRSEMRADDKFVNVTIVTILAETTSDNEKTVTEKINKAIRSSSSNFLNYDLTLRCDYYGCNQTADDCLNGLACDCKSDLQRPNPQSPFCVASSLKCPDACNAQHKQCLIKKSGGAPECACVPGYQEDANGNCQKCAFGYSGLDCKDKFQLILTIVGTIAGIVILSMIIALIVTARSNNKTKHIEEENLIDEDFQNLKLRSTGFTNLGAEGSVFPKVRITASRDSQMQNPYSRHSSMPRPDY
The assay can be described thus: Flow cytometry (FACS) on MUC-13 expressing HT29 cells, antibody at 10 nM, compared with the anti-GFP IgG control. HEK293 cells serve as the MUC-13 negative control. On the procedure:
(§1) Cell surface binding of the MUC-13 antibodies was examined by FACS at 10 nM.
(§2) The MUC-13 binders C4, C7, and C14 (see, e.g., WO2016168607A1) were cloned and produced in the full-length IgG format and their binding capacity to MUC-13 was determined by FACS analysis to MUC-13 expressing HT29 cells. Their potential binding to MUC-13 non-expressing HEK293 cells was also analyzed as a negative control. Cells were harvested and washed 2× with FACS buffer (PBS (—Ca²⁺, —Mg²⁺), 0.1% BSA, 0.5% sodium Azide) and resuspended in FACS buffer at 10⁶ cells/ml. 60 μl of the cell suspension was aliquoted to each well of a 96-well v bottom plate, and the plate was spun for 3 min at 1500 rpm to remove the FACS buffer before adding corresponding MUC-13 antibody or anti-GFP control antibody at 10 nM diluted in FACS buffer and incubated at 4C for 1 hour. Plate was then spun to remove the primary antibodies and washed 1× with FACS buffer before adding Alexa Fluor® 488 goat anti-human secondary antibody (ThermoFisher Scientific) and incubating at 4C for 30 min. This media was then removed after spinning, and the plate washed 1× in FACS buffer. Cells were then resuspended in […] FACS buffer and analyzed on a BD Accuri™ Cell Analyzers (Becton Dickinson) at 10,000 events. […]
A general note: In flow cytometry, cells or beads pass a laser one at a time.

For assay [2], the target named is T1, Mucin 13, cell surface associated …. Briefly: Flow cytometry (FACS) on MUC-13 expressing HT29 cells, antibody at 10 nM, fluorescent goat anti-human secondary antibody, compared with the anti-GFP IgG control. MUC-13 negative HEK293 cells serve as the specificity control. On the procedure: as §1, §2

B1: C4 MUC-13 antibody, full-length IgG format (antibody, V domains shown)
VH: DVQLQESGPGLVKPSQSLSLTCSVTGYSITSGYYWNWIRQFPGNKLEWMGYISYDGSNNYNPSLKNRISITRDTSKNQFFLKLNSVTTEDTATYYCVRVPTMITSYYFDYWGQGTTLTVSS
VL: QIVLTQSPAIMSASPGEKVTISCSASSSVGYIYWYQQKPGSSPKPWIYRTSNLASGVPARFSGSGSGTSYSLTISSMEAEDAATYYCQQYHSYPPTFGGGTKLEIKR
As to B1, the binding result in assay [1] is recorded as “no binding (tested: 10 nM)”.

B2: C14 MUC-13 antibody, full-length IgG format (antibody, V domains shown)
VH: QVQLQQSGAELVRPGSSVKISCKASGYAFSTYWMNWVKQRPGQGLEWIGQIYPGDGDTYYNGNFKGKATLTADKSSSTAYMQLSSLTSEDSAVYFCAVFWDGYWGQGTTLTVSS
VL: QIVLTQSPTIMSASPGEKVTMTCSASSSVTYIHWYQQKSGTSPKRWIYDTSKLASGVPARFGGSGSGTSYSLTINSMETEDAATYYCQQWSSNPFTFGSGTKLEIKR
Consider B2, for which the binding result in assay [2] is “binds”.
